Data published in paper PMC10720262 (Cell Reports, 2023).
Numbering of substitutions follows the chain as printed.

B1: CL-509993 (antibody, V domains shown)
VH: QVQLVESGGGVVQPGRSLRLSCVASGFTFSNNGMHWVRQAPGKGLEWVAIIWYDGSNKYYADSVKGRFTISRDNSNNTLYLQMNSLRAEDTAVYYCARDRMFGSGTWNYFDPWGQGTLVTVSS
VL: EIVLTQSPATLSLSPGERATLSCRASQSVTTYLAWYQQKPGQAPRLLIYDASNRATGIPARFSGSGSGTDFTLTISSLEPEDFAVYYCQQRSNWWTFGQGTKVEIK
B2: CL-510020 (antibody, V domains shown)
VH: QVQLVESGGGVVQPGRSLRLSCAASGFTFSSFGMYWVRQAPGKGLEWVALIWYDGSNQYYADSVKGRFTISRDNSKNTLYLQMNSLRAEDTAVYYCARAGYFYGSGSPLDYWGQGTLVTVPS
VL: DIQMTQSPSTLSASVGDGVTITCRASQSISSWLAWYQQKPGKAPKLLIYMASSLESGVPSRFSGSGSGTEFTLTISSLQPDDFATYYCQQYYNYWTFGQGTKVEIK
B3: CL-510082 (antibody, V domains shown)
VH: B1 VH with R16K, V37I, Y59F, N76H
VL: B1 VL with T30S, N93Y
B4: CL-510092 (antibody, V domains shown)
VH: QVQLVESGGGVVQPGTSLRLSCAASGFTFSNFGMYWVRQAPGKGLEWVALIWYDGSNKFYEDSVKGRFTISRDNSKNTLYLQMNSLRAEDTAVYYCAKDGGYSGPGKYGFFRHWGQGSLVTVSS
VL: B2 VL with M4L, G18R, S31N, M50K, S65N, Q89H, Y92N, N93F
B5: CL-510373 (antibody, V domains shown)
VH: QVQLVESGGGVVQPGRSLKLSCAASGFTFSSYGMHWVRQAPGRGLEWVSIIWYDGSNKFYSDSVQGRFTISRDDSKNTLYLQMNSLRAEDTAMYYCAMVANYTISSGAFDIWGHGTMVTVSS
VL: B2 VL with G18R, S31N, P40S, M50K, Y87F, Y92K, N93T
B6: CL-510416 (antibody, V domains shown)
VH: QVQLVESGGGVVQPGRSLRLSCEASGFTFSNYGMHWVRQGPGKGLEWVALMWYDGSNKYYSDSVKGRFTISRDNSKSTLYLQMNSLRAEDTAVYYCARPITGNTHSKYTMDVWGQGTTVTVSS
VL: B2 VL with G18R, M50K, S53T, Y87F, Y92N, N93S
B7: CL-510418 (antibody, V domains shown)
VH: QVQLVESGGGVVQPGQSLRLSCEASGFTFSNYGMHWVRQAPVKGLEWVAIIWFDGSYKYYADSVKGRFTVSRDNSKNTLYLQMDSLRAEDTAVYYCARARKGQRSDYYGSETSYTFDNWGQGTLVTVSS
VL: B2 VL with G18R, S30N, L46F, M50K, S53I, V58I, Y92N, N93S
B8: CL-510427 (antibody, V domains shown)
VH: QVQLVESGGGVVQPGRSLRLSCAASGFTFSNYGMHWVRQAPGKGLEWVAVIWYDGSKEDYADSVKGRLTISRDNSKNTLYLQMNSLRAEDTAVYYCARDGDSRGWYAFDYWGQGTLVTVSS
VL: not shown
B9: CL-510433 (antibody, V domains shown)
VH: QVQLVESGGGVVQPGRSLRLSCVASGFTFSSYGMHWVRQAPGKGLEWVAVIWYDGSNKYYADSVKGRFTVSRDNSKNTLYLQMNSLRAEDTAVYYCARVYYYGSGSYSPYYYALDVWGHGTTVTVSS
VL: EIVMTQSPATLSVSPGERATLSCRASQSISSNLAWYQQKPGQAPRLLIYGASIRATGIPARFSGSGSGTEFTLSISILQSEDFAIYYCQQYNNWWTFGQGTKVEIK
B10: CL-510453 (antibody, V domains shown)
VH: QVQLVESGGGVVQPGRSLRLSCAASGFTFSSYGMHWVRQAPDKGLEWVAIIWYDGSKKYYADSVKGRFTVSRDNSKNTLYLQMNSLRAEDTAVFYCARSFDYESGGFYSFDYWGQGTLVSVSS
VL: B2 VL with G18R, M50R, E55A, Y92N, N93S, I105F
B11: CL-510458 (antibody, V domains shown)
VH: QVQLVESGGGVVQPGRSLRLSCAASGFTFNNYGMHWVRQAPGKGLEWVAVIWYDGSNKFHADSVKGRFTISRDNSKNTLYLQMNSLRAEDTALYYCARVYYYDSGSYLDYWGQGTLVTVSS
VL: DIQMTQSPSSVSASVGDRVTITCRASQGISRWLAWYQQKPGKAPKLLIYAASSLQSGVPSRFSGSGSGTDFTLTISSLQPEDFATYCCQQANNFPWTFGQGTKVEIK
B12: CL-510469 (antibody, V domains shown)
VH: QVQLVESGGGVVQPGRSLRLSCAASGFTFSSYGMHWVRQAPGKGLEWVAVIWYDGSNQFYTDSVKGRFTISRDNSKNTLYLHMNSLRVEDTAIYYCARDGDYSSSAGDFDYWGQGTLVTVSS
VL: not shown
B13: CL-510484 (antibody, V domains shown)
VH: QVQLVESGGGVVQPGRSLRLSCAASGFTFSNYGMNWVRQAPGKGLEWMAVIWYDGSNKYYGDSVKGRFTISRDNSKNTLYLQMISLRAEDTAVYFCAKSGEFYGSGSHFDYWGQGTLVTVSS
VL: not shown
B14: CL-510487 (antibody, V domains shown)
VH: QVQLEESGGGVVQPGRSLRLSCTATGFTFSNYGMHWVRQAPGRGLEWVGVIWYDGSNKFYVDSVKGRFTISRDNSKNTLYLQMNSLRAEDTAVYYCARDGGYYGSGSYWWFDSWGQGTLVTVSS
VL: B2 VL with G18R, M50K, S56R, Y92N, N93R, W95C, T96S, V103L
B15: CL-510499 (antibody, V domains shown)
VH: QVQLVESGGGLVQPGRSLTLSCAASGFTFSNYGMHWVRQTPGKGLEWVALIRYDGSYKFYADSVKGRFTISRDNSKNTLYLQMNSLRAEDTAIYFCARDGDYSNSAGDFDYWGQGTLVTVSS
VL: EIVLTQSPGTLSLSPGERATLSCRASQSVSSTNLAWYQQKPGQAPRLLIYGVSSRATGIPDRFSGSGSGTDFTLTINRLEPEDFAVYYCQQHGRSFTFGPGTKVEIK
B16: CL-510514 (antibody, V domains shown)
VH: QVQLVESGGGVVQPGRSLRLSCTTSGFTFSNFGMHWVRQAPGKGLEWVALIWYDGSNKYYADSVKGRFTISRDNSKNTLYLQMNGLRAEDTAVYYCARDGGYYYGSGGAFDIWGQGTMVTVSS
VL: not shown
B17: CL-510596 (antibody, V domains shown)
VH: B14 VH with R43K, G49A, F59Y
VL: not shown
B18: CL-510632 (antibody, V domains shown)
VH: B11 VH with N30S, H60Y, M83T, L93V, S106N, T118A
VL: B11 VL with S30N, R31N, W32C, S77N, N93S

Target: recombinant full-length PfCSP (Plasmodium falciparum circumsporozoite protein, strain NF54) (Plasmodium falciparum NF54, UniProt P19597)
Sequence (P19597 20-375): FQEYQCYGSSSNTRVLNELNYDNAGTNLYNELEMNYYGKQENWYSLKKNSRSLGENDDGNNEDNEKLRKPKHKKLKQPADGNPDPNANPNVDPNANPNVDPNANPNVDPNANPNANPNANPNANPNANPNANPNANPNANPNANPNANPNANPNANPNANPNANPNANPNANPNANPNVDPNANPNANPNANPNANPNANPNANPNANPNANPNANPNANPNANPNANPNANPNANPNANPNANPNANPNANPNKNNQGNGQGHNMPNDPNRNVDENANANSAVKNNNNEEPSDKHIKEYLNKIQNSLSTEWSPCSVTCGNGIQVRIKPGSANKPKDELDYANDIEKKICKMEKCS

Binder	binding result
B1	binds
B2	binds
B3	binds
B4	binds
B5	binds
B6	binds
B7	binds
B8	binds
B9	binds
B10	binds
B11	binds
B12	binds
B13	binds
B14	binds
B15	binds
B16	binds
B17	binds
B18	binds
